Test results published in publication PMC10261145, “Ceramide sensing by human SPT-ORMDL complex for establishing sphingolipid homeostasis” (Nature Communications, 2023).
Where a chain is given by its changes, count along the chain named. Names and notes keep the numbering of the source. One block for each binder: values may come before it.

Key:
[1] = target: T1, serine palmitoyltransferase (SPT) complex (SPTLC1, SPTLC2, SPTssa) (human, UniProt O15269 1-473; O15270 1-562; Q969W0 1-71); assay: cryo-EM structure; single-particle cryo-EM of co-expressed and co-purified SPT-ORMDL3 complexes at ~18 mg/ml in 25 mM HEPES pH 7.5, 150 mM NaCl, 0.01% GDN; apo, or WT preincubated with 1 mM C6-ceramide on ice for 1 hr; settings: both partners purified
T1 construct: SPTLC1, human, codon-optimized full-length cDNA; SPTLC2, human, codon-optimized full-length cDNA; SPTssa, human, codon-optimized full-length cDNA; Also purified alone, without ORMDLs; also called WT SPT complex; source: HEK293F, transiently co-transfected, purified (anti-Flag resin, SEC, GDN); copies: + +
T1 sequence (looked up) 1: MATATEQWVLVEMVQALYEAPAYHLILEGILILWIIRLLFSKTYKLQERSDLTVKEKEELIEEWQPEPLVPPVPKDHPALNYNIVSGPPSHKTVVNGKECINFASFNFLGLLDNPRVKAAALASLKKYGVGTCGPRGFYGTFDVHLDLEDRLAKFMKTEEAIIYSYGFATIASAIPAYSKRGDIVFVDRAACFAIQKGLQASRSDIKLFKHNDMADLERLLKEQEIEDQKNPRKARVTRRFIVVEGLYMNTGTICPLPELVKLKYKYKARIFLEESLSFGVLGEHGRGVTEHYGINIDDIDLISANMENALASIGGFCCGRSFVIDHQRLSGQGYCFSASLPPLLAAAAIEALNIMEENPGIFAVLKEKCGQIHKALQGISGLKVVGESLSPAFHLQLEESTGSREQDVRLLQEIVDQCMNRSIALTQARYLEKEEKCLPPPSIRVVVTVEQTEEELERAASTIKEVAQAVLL
T1 sequence (looked up) 2: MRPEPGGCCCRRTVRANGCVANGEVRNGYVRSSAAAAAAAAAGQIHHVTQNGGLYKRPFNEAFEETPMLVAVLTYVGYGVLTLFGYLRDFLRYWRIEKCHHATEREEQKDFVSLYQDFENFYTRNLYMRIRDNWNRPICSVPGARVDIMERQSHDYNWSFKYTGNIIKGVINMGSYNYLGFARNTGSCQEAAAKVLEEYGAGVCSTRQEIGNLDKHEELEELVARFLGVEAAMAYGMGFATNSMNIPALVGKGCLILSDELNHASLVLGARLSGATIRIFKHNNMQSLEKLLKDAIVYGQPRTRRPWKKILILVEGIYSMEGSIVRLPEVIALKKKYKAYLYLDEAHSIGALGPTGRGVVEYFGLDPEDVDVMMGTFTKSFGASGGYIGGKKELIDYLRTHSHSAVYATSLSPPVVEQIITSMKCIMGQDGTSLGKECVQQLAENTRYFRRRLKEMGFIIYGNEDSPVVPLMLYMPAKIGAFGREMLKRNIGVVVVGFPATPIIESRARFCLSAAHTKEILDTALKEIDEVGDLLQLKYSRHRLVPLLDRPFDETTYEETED
T1 sequence (looked up) 3: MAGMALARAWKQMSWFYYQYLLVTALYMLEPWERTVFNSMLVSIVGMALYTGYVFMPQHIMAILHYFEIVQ

[2] = substrate: CCCCCCCCCCCCCCCC(=O)SCCNC(=O)CCNC(=O)[C@H](O)C(C)(C)COP(=O)(O)OP(=O)(O)OC[C@H]1O[C@@H](n2cnc3c(N)ncnc32)[C@H](O)[C@@H]1OP(=O)(O)O; assay: DTNB CoA-release assay; allosteric sigmoidal fit; assay type: biochemical, Homo sapiens; settings: 10 mM L-serine, 25 μM PLP, pH 7.5, 37 °C
Excerpt: DTNB CoA-release assay; allosteric sigmoidal fit on SPT-ORMDL3 complex | increased Khalf for palmitoyl-CoA in the ORMDL3-containing complex (Fig. 1e)

purified protein = substrate: N[C@@H](CO)C(=O)O; assay: purified protein; settings: 100 μM palmitoyl-CoA, 25 μM PLP, pH 7.5, 37 °C
[3] = target: the molecule itself; assay: cryo-EM structure; single-particle cryo-EM of co-expressed and co-purified SPT-ORMDL3 complexes at ~18 mg/ml in 25 mM HEPES pH 7.5, 150 mM NaCl, 0.01% GDN; apo, or WT preincubated with 1 mM C6-ceramide on ice for 1 hr
[4] = substrate: CCCCCCCCCCCCCCCC(=O)SCCNC(=O)CCNC(=O)[C@H](O)C(C)(C)COP(=O)(O)OP(=O)(O)OC[C@H]1O[C@@H](n2cnc3c(N)ncnc32)[C@H](O)[C@@H]1OP(=O)(O)O; assay: DTNB CoA-release assay; allosteric sigmoidal fit; assay type: biochemical, Homo sapiens; settings: 10 mM L-serine, 25 μM PLP, pH 7.5, 37 °C; remark: listed apart in the source
Excerpt: DTNB CoA-release assay; allosteric sigmoidal fit on SPT complex | SPT activity versus palmitoyl-CoA concentration for SPT and SPT-ORMDL3 complex

SPTLC1 = target: T2, SPTLC1 (human, UniProt O15269 1-473); assay: cryo-EM structure; single-particle cryo-EM of co-expressed and co-purified SPT-ORMDL3 complexes at ~18 mg/ml in 25 mM HEPES pH 7.5, 150 mM NaCl, 0.01% GDN; apo, or WT preincubated with 1 mM C6-ceramide on ice for 1 hr; settings: both partners purified
T2 construct: serine palmitoyltransferase subunit SPTLC1, human, codon-optimized full-length cDNA; source: HEK293F, transiently co-transfected with the other subunits, purified as a complex (anti-Flag resin, SEC, GDN)
T2 sequence (looked up): T1 sequence (looked up) 1

SPTLC2 = target: T3, SPTLC2 (human, UniProt O15270 1-562); assay: as above; settings: both partners purified
T3 construct: serine palmitoyltransferase subunit SPTLC2, human, codon-optimized full-length cDNA; source: HEK293F, transiently co-transfected with the other subunits, purified as a complex (anti-Flag resin, SEC, GDN)
T3 sequence (looked up): T1 sequence (looked up) 2

[5] = substrate: CCCCCCCCCCCCCCCC(=O)SCCNC(=O)CCNC(=O)[C@H](O)C(C)(C)COP(=O)(O)OP(=O)(O)OC[C@H]1O[C@@H](n2cnc3c(N)ncnc32)[C@H](O)[C@@H]1OP(=O)(O)O; assay: DTNB CoA-release assay; allosteric sigmoidal fit; assay type: biochemical, Homo sapiens; settings: 10 mM L-serine, 25 μM PLP, pH 7.5, 37 °C; remark: listed apart in the source
Excerpt: DTNB CoA-release assay; allosteric sigmoidal fit on SPT-ORMDL3 complex | Khalf value of this variant toward palmitoyl-CoA was nearly two times as high

[6] = substrate: CCCCCCCCCCCCCCCC(=O)SCCNC(=O)CCNC(=O)[C@H](O)C(C)(C)COP(=O)(O)OP(=O)(O)OC[C@H]1O[C@@H](n2cnc3c(N)ncnc32)[C@H](O)[C@@H]1OP(=O)(O)O; assay: DTNB CoA-release assay; allosteric sigmoidal fit; assay type: biochemical, Homo sapiens; settings: 10 mM L-serine, 25 μM PLP, pH 7.5, 37 °C; remark: listed apart in the source

- binding result [1]: binds
B1: ORMDL3-ΔN2 (deletion of the Asn2 residue) (natural protein, human, UniProt Q8N138 1-153, looked up)
chain: MVGTAHSEVNPNTRVMNSRGIWLSYVLAIGLLHIVLLSIPFVSVPVVWTLTNLIHNMGMYIFLHTVKGTPFETPDQGKARLLTHWEQMDYGVQFTASRKFLTITPIVLYFLTSFYTKYDQIHFVLNTVSLMSVLIPKLPQLHGVRIFGINKY
notes: ORMDL3, human, full-length cDNA with Asn2 deleted; also called ORMDL3-ΔN2 mutant; source: HEK293F, transiently co-transfected with the SPT subunits, purified as a complex (anti-Flag resin, SEC, GDN)

B2: SPT-ORMDL3 complex (Homo sapiens) (protein)
chain 1: MNVGTAHSEVNPNTRVMNSRGIWLSYVLAIGLLHIVLLSIPFVSVPVVWTLTNLIHNMGMYIFLHTVKGTPFETPDQGKARLLTHWEQMDYGVQFTASRKFLTITPIVLYFLTSFYTKYDQIHFVLNTVSLMSVLIPKLPQLHGVRIFGINKY
chain 2: T1 sequence (looked up) 2
chain 3: T1 sequence (looked up) 1
notes: full-length subunits (ORMDL3-FL) co-expressed in HEK293F; N-terminal Flag tag on a subunit; purified in GDN; dimer of heterotetrameric protomers; with Serine palmitoyltransferase small subunit A
- K0.5 [2]: 26.85 ± 2.18 µM
- Km (purified protein): 1140 ± 70 µM

B3: SPT-ORMDL3 (ORMDL3-ΔN2) complex (complex, human)
chain 1: T1 sequence (looked up) 1
chain 2: T1 sequence (looked up) 2
chain 3: T1 sequence (looked up) 3
chain 4: B1 chain
notes: SPTLC1, human, codon-optimized full-length cDNA; SPTLC2, human, codon-optimized full-length cDNA; SPTssa, human, codon-optimized full-length cDNA; ORMDL3, human, full-length cDNA with Asn2 deleted; One protomer; also called ORMDL3-ΔN2 variant; ORMDL3-ΔN2 protomer; source: HEK293F, transiently co-transfected, purified (anti-Flag resin, SEC, GDN); copies: + + +
- binding result [3]: binds

B4: SPT complex (Homo sapiens) (protein)
chain 1: T1 sequence (looked up) 1
chain 2: T1 sequence (looked up) 2
notes: core enzyme without ORMDL; full-length subunits co-expressed in HEK293F; N-terminal Flag tag on a subunit; purified in GDN; with Serine palmitoyltransferase small subunit A
- K0.5 [4]: 4.47 ± 0.31 µM
- Km (purified protein): 1580 ± 130 µM

B5: SPT-ORMDL3 (ORMDL3-N13A) complex (complex, human)
chain 1: T1 sequence (looked up) 1
chain 2: T1 sequence (looked up) 2
chain 3: T1 sequence (looked up) 3
chain 4: B2 chain 1 with N13A
notes: SPTLC1, human, codon-optimized full-length cDNA; SPTLC2, human, codon-optimized full-length cDNA; SPTssa, human, codon-optimized full-length cDNA; ORMDL3, human, full-length cDNA with N13A; One protomer; also called ORMDL3-N13A variant; ORMDL3-N13A protomer; source: HEK293F, transiently co-transfected, purified (anti-Flag resin, SEC, GDN); copies: + + +
- binding result [3]: binds

- binding result [1]: binds
- binding result (SPTLC1): binds
- binding result (SPTLC2): binds
B6: ORMDL3 (full-length, wild type) (natural protein, human, UniProt Q8N138 1-153, looked up)
chain: B2 chain 1
notes: ORMDL3, human, codon-optimized full-length cDNA in pCAG (new ORMDL3-FL plasmid without the 14 extra nucleotides upstream of the ORF); cDNAs were cloned 'with an N-terminal Flag tag or without a tag'; also called ORMDL3-FL; WT ORMDL3; source: HEK293F, transiently co-transfected with the SPT subunits, purified as a complex (anti-Flag resin, SEC, GDN)

B7: SPT-ORMDL3 complex (Homo sapiens; Q8N138:N13A) (protein)
chain 1: B2 chain 1 with N13A
chain 2: T1 sequence (looked up) 2
chain 3: T1 sequence (looked up) 1
notes: as for B2
- K0.5 [5]: 8.05 ± 1.20 µM

B8: SPT-ORMDL3 complex (SPTLC1, SPTLC2, SPTssa, ORMDL3-FL) (complex, human)
chain 1: T1 sequence (looked up) 1
chain 2: T1 sequence (looked up) 2
chain 3: T1 sequence (looked up) 3
chain 4: B2 chain 1
notes: SPTLC1, human, codon-optimized full-length cDNA; SPTLC2, human, codon-optimized full-length cDNA; SPTssa, human, codon-optimized full-length cDNA; ORMDL3, human, codon-optimized full-length cDNA; One protomer; two protomers form the dimeric complex seen by cryo-EM; also called WT SPT-ORMDL3 complex; SPT-ORMDL3 protomer; source: HEK293F, transiently co-transfected, purified (anti-Flag resin, SEC, …)
- stoichiometry N [3]: 2

B9: SPT-ORMDL3 (ORMDL3-ΔN17) (Homo sapiens) (protein)
chain 1: T1 sequence (looked up) 1
chain 2: T1 sequence (looked up) 2
notes: ORMDL3 lacking the N-terminal 16 residues (deletion 2-17, by analogy with the printed ΔN8 = 2-8); HEK293F; purified in GDN; with Serine palmitoyltransferase small subunit A; ORM1-like protein 3
- K0.5 [6]: 2.51 ± 0.33 µM

- binding result [1]: binds
B10: ORMDL3-N13A (natural protein, human, UniProt Q8N138 1-153, looked up)
chain: B2 chain 1 with N13A
notes: ORMDL3, human, full-length cDNA with N13A; also called ORMDL3-N13A mutant; source: HEK293F, transiently co-transfected with the SPT subunits, purified as a complex (anti-Flag resin, SEC, GDN)
